Columns and labels:
[1] = target: Fibroblast growth factor receptor (human (endogenous in MCF-7)) (UniProt P11362); experiment: Western blot of cell lysates for the receptor dimer
purified protein = substrate: CC(=O)N[C@H]1[C@H]([C@H](O)[C@H](O)CO)O[C@](OP(=O)(O)OC[C@H]2O[C@@H](n3ccc(N)nc3=O)[C@H](O)[C@@H]2O)(C(=O)O)C[C@@H]1O; experiment: purified protein; conditions: donor substrate; acceptor type II LacNAc

Fibroblast growth factor receptor (from UniProt P11362 22-822)
stoichiometry N [1]: 2

B1: recombinant human ST3Gal-IV (α2,3-sialyltransferase) (Homo sapiens) (protein)
chain: REDRYIELFYFPIPEKKEPCLQGEAESKASKLFGNYSRDQPIFLRLEDYFWVKTPSAYELPYGTKGSEDLLLRVLAITSSSIPKNIQSLRCRRCVVVGNGHRLRNSSLGDAINKYDVVIRLNNAPVAGYEGDVGSKTTMRLFYPESAHFDPKVENNPDTLLVLVAFKAMDFHWIETILSDKKRVRKGFWKQPPLIWDVNPKQIRILNPFFMEIAADKLLSLPMQQPRKIKQKPTTGLLAITLALHLCDLVHIAGFGYPDAYNKKQTIHYYEQITLKSMAGSGHNVSQEALAIKRMLEMGAIKNLTSF
Km (purified protein): 73.4 µM

Reference: publication PMC5779621
